Assay results published in patent US20080064052A1, “Crystal of a Receptor-Ligand Complex and methods of use” (priority 2006, published 2008).
Values joined by “and” are separate entries in the source; they are usually repeats but may differ in a detail not shown here. Equal entries are not always repeated. Peptide text beside a SMILES is read from it.

Key:
[1] = target: T1, human EphB4 ephrin-binding domain (Homo sapiens, UniProt P54760); test: Isothermal titration calorimetry (ITC) binding to EphB4 (17-196); conditions: 25° C., 50 mM Tris pH 7.8, 150 mM NaCl, 1 mM CaCl2
T1 sequence (P54760 17-196): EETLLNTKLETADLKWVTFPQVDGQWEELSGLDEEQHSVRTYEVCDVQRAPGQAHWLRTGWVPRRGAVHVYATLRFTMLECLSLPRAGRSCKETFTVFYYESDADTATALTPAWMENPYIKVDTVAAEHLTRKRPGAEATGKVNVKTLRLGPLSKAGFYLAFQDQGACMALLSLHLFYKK
Procedure: Peptides were dissolved into the same buffer used for the dialysis of EphB4. […] ITC experiments were performed with a Microcal MCS ITC at 25° C. Following an initial injection of 2 μl, titrations were performed by making 20 13 μl injections of peptide into EphB4 in the sample cell to produce an approximate final 2:1 ratio of injectant to sample in the cell. […] Prior to loading the sample cell, EphB4 was centrifuged at 18,000 g for 5 min at 4° C. to remove aggregates and degassed for 5 minutes at room temperature. […] Dilution data were fit to a line and subtracted from the corresponding titration data.

[2] = target: T2, mouse EphB4 ectodomain Fc fusion protein (Mus musculus, UniProt P54761); test: ELISA competition: inhibition of mouse ephrin-B2 alkaline phosphatase (AP) binding to immobilized mouse EphB4 ectodomain Fc; conditions: IC50 for inhibition of mouse ephrin-B2 AP binding to immobilized mouse EphB4 ectodomain Fc, ELISA binding assay; murine receptor
T2 sequence (P54761 16-539 limits assumed): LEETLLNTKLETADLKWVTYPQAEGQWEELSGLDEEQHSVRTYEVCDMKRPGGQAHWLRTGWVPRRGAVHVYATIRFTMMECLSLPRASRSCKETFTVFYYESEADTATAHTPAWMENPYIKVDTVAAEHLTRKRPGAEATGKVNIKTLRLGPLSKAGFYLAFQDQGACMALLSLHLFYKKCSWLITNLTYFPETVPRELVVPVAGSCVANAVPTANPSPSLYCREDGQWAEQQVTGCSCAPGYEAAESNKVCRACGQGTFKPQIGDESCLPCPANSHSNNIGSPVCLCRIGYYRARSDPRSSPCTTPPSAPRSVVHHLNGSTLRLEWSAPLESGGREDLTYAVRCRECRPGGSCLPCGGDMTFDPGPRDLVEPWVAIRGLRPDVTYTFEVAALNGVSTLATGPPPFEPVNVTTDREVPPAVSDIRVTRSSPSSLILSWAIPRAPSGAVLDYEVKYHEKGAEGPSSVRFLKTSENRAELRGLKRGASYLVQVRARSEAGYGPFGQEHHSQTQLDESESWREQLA

[3] = target: T3, human EphB4 ephrin-binding domain, EphB4 (17-196) (human, UniProt P54760 17-196); test: ITC at 25 °C
T3 sequence: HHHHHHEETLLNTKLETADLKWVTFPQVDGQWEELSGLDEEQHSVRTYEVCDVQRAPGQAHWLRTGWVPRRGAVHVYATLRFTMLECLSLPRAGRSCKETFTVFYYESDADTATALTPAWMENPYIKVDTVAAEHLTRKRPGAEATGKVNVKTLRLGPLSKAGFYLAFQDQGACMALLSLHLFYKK
Procedure: (§1) Experiments were performed at 25° C. in 50 mM Tris pH 7.8, 150 mM NaCl, 1 mM CaCl₂.
(§2) Isothermal titration calorimetry and ELISA experiments: EphB4and ephrin-B2 were either dialyzed or buffer exchanged into 50 mM Tris-Cl (pH 7.8 at 25° C.), 150 mM NaCl, 1 mM CaCl₂, prior to use in calorimetry experiments. Peptides were dissolved into the same buffer used for the dialysis of EphB4. The concentration of EphB4, ephrin-B2 and the peptides was determined by measuring the A₂₈₀ and using the theoretical-extinction coefficient (Gill and von Hippel, 1989). ITC experiments were performed with a Microcal MCS ITC at 25° C. Following an initial injection of 2 μl, titrations were performed by making 20 13 μl injections of peptide into EphB4 in the sample cell to produce an approximate final 2:1 ratio of injectant to sample in the cell. […] Corrections for heats of dilution for the peptides and ephrin-B2 were determined by performing titrations of peptide or ephrin-B2 solutions into buffer. […] Titration data were analyzed using Origin ITC software (Version 5.0, Microcal Software Inc.) and curves were fit to a single binding site model (Wiseman et al., 1989). […] A lower limit for the binding constant was determined by performing a titration in which the sample cell contained 30 μM EphB4 and the injection syringe contained a 1.45 mM solution of the peptide, producing a final ratio of peptide to EphB4 of 10:1.

[4] = target: T3, human EphB4 ephrin-binding domain, …; test: ITC at 25 °C, peptide injected into human EphB4 (17-196)
Procedure: (§3) Isothermal titration calorimetry and ELISA experiments: EphB4and ephrin-B2 were either dialyzed or buffer exchanged into 50 mM Tris-Cl (pH 7.8 at 25° C.), 150 mM NaCl, 1 mM CaCl₂, prior to use in calorimetry experiments. Peptides were dissolved into the same buffer used for the dialysis of EphB4. The concentration of EphB4, ephrin-B2 and the peptides was determined by measuring the A₂₈₀ and using the theoretical-extinction coefficient (Gill and von Hippel, 1989). ITC experiments were performed with a Microcal MCS ITC at 25° C. Following an initial injection of 2 μl, titrations were performed by making 20 13 μl injections of peptide into EphB4 in the sample cell to produce an approximate final 2:1 ratio of injectant to sample in the cell. For most titrations the sample cell contained 15 μM EphB4 and the injection syringe contained a 200 μM solution of the peptide. Titrations with ephrin-B2 contained 13 μM EphB4 in the sample cell and 290 μM ephrin-B2 in the syringe. Prior to loading the sample cell, EphB4 was centrifuged at 18,000 g for 5 min at 4° C. to remove aggregates and degassed for 5 minutes at room temperature. Corrections for heats of dilution for the peptides and ephrin-B2 were determined by performing titrations of peptide or ephrin-B2 solutions into buffer. Dilution data were fit to a line and subtracted from the corresponding titration data. Titration data were analyzed using Origin ITC software (Version 5.0, Microcal Software Inc.) and curves were fit to a single binding site model (Wiseman et al., 1989). […] A lower limit for the binding constant was determined by performing a titration in which the sample cell contained 30 μM EphB4 and the injection syringe contained a 1.45 mM solution of the peptide, producing a final ratio of peptide to EphB4 of 10:1. The data was fit assuming a stoichiometry of 1 and at least 60% saturation of binding at the final peptide concentration (Turnbull and Daranas, 2003).

[5] = target: T4, mouse EphB4 ectodomain Fc fusion protein (mouse EphB4-Fc-His, R&D Systems) (mouse, UniProt P54761 16-539); test: competition ELISA: inhibition of mouse ephrin-B2 AP binding to immobilized mouse EphB4 ectodomain Fc
T4 construct: extracellular domain; also called murine EphB4; not shown: Fc part of a bought fusion protein; His tag of the bought protein
T4 sequence (looked up): T2 sequence (P54761 16-539 limits assumed)
Procedure: (§4) The ability of peptides to compete the binding of mouse ephrin-B2 alkaline phosphatase to immobilized mouse EphB4-Fc-His (R&D Systems) was measured by ELISA as previously described (Koolpe et al., 2005).

[6] = target: T4, mouse EphB4 ectodomain Fc fusion …; test: competition ELISA: inhibition of mouse ephrin-B2 AP binding to immobilized mouse EphB4 ectodomain Fc; text sentence that cites Table 1A; same ELISA
Procedure: as §4

[7] = target: T3, human EphB4 ephrin-binding domain, …; test: ITC at 25 °C, 1.45 mM peptide injected into 30 µM human EphB4 (17-196)
Procedure: as §1, §2

[8] = target: T3, human EphB4 ephrin-binding domain, …; test: ITC at 25 °C, 290 µM ephrin-B2 injected into 13 µM human EphB4 (17-196)
Procedure: as §1
as §3, with “10:1.” for “10:1. The data was fit assuming a stoichiometry of 1 and at least 60% saturation of binding at the final peptide concentration (Turnbull and Daranas, 2003).”

CC[C@H](C)[C@H](NC(=O)[C@@H]1CCCN1C(=O)CNC(=O)[C@H](CC(N)=O)NC(=O)[C@@H]1CCCN1C(=O)[C@H](CO)NC(=O)[C@H](Cc1ccccc1)NC(=O)[C@H](CC(C)C)NC(=O)[C@H](Cc1ccc(O)cc1)NC(=O)[C@H](CC(N)=O)NC(=O)[C@@H](N)[C@@H](C)O)C(=O)N[C@@H](C)C(=O)N[C@@H](CCCNC(=N)N)C(=O)N[C@@H](C)C(=O)N[C@@H](Cc1c[nH]c2ccccc12)C(=O)O [TNYL-RAW] (H-TNYLFSPNGPIARAW-OH; N-terminus assumed)
TΔS [1]: -4.9 ± 0.2 kcal/mol | ΔG [1]: -9.8 ± 0.1 kcal/mol | ΔH [1]: -14.7 kcal/mol and -14.7 ± 0.2 kcal/mol | Kd ([1]; Kd): 70 nM | IC50 [2]: ~15 nM and 15 nM

B1: LFSP-RAW peptide (LFSPNGPIARAW) (peptide)
peptide: LFSPNGPIARAW
notes: TNYL-RAW without Thr-P1, Asn-P2 and Tyr-P3
fold reduction in affinity (against the peptides that keep Tyr-P3) [3]: 40 fold | Kd [4]: 3500 nM | TΔS [4]: 2.1 kcal/mol | ΔG [4]: -7.4 kcal/mol | ΔH [4]: -5.3 kcal/mol | IC50 [5]: ~15000 nM

B2: TNYL-RAW peptide (TNYLFSPNGPIARAW) (peptide)
peptide: TNYLFSPNGPIARAW
notes: Synthetic 15-mer (Biopeptide, Inc.); Peptide positions are printed as P1 to P15; also called antagonistic peptide
Kd [4]: 71 nM | TΔS [4]: -4.9 kcal/mol | ΔG [4]: -9.8 kcal/mol | ΔH [4]: -14.7 kcal/mol | IC50 [6]: ~15 nM | IC50 [5]: 15 nM

TNYLFSPNGPIA [TNYL peptide (TNYLFSPNGPIA)]
ΔH [7]: -9.6 kcal/mol | IC50 [5]: 150000 nM

B3: Eph-binding domain of human ephrin-B2 (ligand)
chain: IVLEPIYWNSSNSKFLPGQGLVLYPQIGDKLDIICPKVDSKTVGQYEYYKVYMVDKDQADRCTIKKENTPLLNCAKPDQDIKFTIKFQEFSPNLWGLEFQKNKDYYIISTSNGSLEGLDNQEGGVCQTRAMKILMKVG
Kd [8]: 40 nM | TΔS [8]: 13.4 kcal/mol | ΔG [8]: -10.2 kcal/mol | ΔH [8]: 3.3 kcal/mol
